This note sets out measurements from the supplement of paper PMC10201428.

± gives the standard deviation of the averaged measurements.

This data set has as its system VchCAST RNA-guided transposition machinery (E. coli BL21(DE3) host, lacZ target). As to the kind of experiment: relative integration efficiency (T-LR orientation) vs wild-type transposon end (log2 (normalized fold change)); transposon end mutated: right end (5 bp flank + 75 bp right end); higher = more efficient transposition. The essentials:
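Barcode abundances in input plasmids and in genomic integration junctions were obtained by PCR amplification and Illumina sequencing. These came from E. coli BL21(DE3) co-transformed with a T7-driven effector plasmid and a pUC57 donor carrying 1549 left-end or 1849 right-end transposon variants, then plated with 0.1 mM IPTG at 37°C for 18 h. Relative integration efficiency is the output/input fold change, normalised to reference barcodes and log-transformed.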
For the sequence “TGTATTGTTGATACAACCATAAAATGATAATTACACCCATAAATTGATAATTATCACACCCATAAATTGATATTGCCTCTGATCATAGTCAGACCAACATTGCTACGACCCGTATTCGCACCGACAC”, the “relative integration efficiency (log2)” value came to 0.421 ± 0.14.

Consider “ACATTTGTTGATACAACCATAAAATGATAAATACACCCATAAATTGATAATGATGACACCGAATTTAACTATAACGCTCTGATCATAGTCAGACCAACATTGCTACGACCCGTATTCGCACCGACAC”, for which the “relative integration efficiency (log2)” value came to 2.71 ± 0.18.

As to “ACATTTCTTCATACAACCATAAAATGATAATTACACCCATAAATTGATAATTATCACACCCAATTTAACTATAACGCTCTGATCATAGTCAGACCAACATTGCTACGACCCGTATTCGCACCGACAC”, the “relative integration efficiency (log2)” value was -2.1 ± 0.57.

With “ACATTTGTTGATACAACCATAAAATGATAATTAATAATTATTTATAATCAGCACCCATAAATTGATAATTATCACACCCATAAATTGATATTGCCTCTGATCATAGTCAGACCAACATTGCTACGAC”, the “relative integration efficiency (log2)” value was -0.258 ± 0.51.

Consider “ACATTTGTTGATACAACCATAAAATGATAATTAATAATTATCACCCATAAATTGATAATTATCACACCCATAAATTGATATTGCCTCTGATCATAGTCAGACCAACATTGCTACGACCCGTATTCGC”, for which the “relative integration efficiency (log2)” value is -0.503 ± 0.38.

Take “ACATTTGTTGATAAAACCATAAAATGATAATTAGACCCATAAATTGATAATTATCACACCCATAAATTGATATTGCCTCTGATCATAGTCAGACCAACATTGCTACGACCCGTATTCGCACCGACAC”: the “relative integration efficiency (log2)” value was -1.02 ± 0.36.

Regarding “ACATTTGTTGATACCCAAATAAAATGATAATTACACCCATAAATTGATAATTATCACACCCATAAATTGATATTGCCTCTGATCATAGTCAGACCAACATTGCTACGACCCGTATTCGCACCGACAC”, the “relative integration efficiency (log2)” value was -2.7 ± 0.25.

On to “ACATTTCTTCATACAACCATAAAATGATAATTACACCCATAAATTCATAATTATCACACCCAATTTAACTATAACGCTCTGATCATAGTCAGACCAACATTGCTACGACCCGTATTCGCACCGACAC”, for which the “relative integration efficiency (log2)” value is -3.54 ± 2.7.

Consider “ACATTTGTTGATACAACCATAAAATGATAATTACACCCATAAATGTCGCCGGCGACACAAACGCCCGGTCGCGGTAAGAGGATCATAGTCAGACCAACATTGCTACGACCCGTATTCGCACCGACAC”, for which the “relative integration efficiency (log2)” value is 1 ± 0.17.

“ACATTTGTGGATACAACCATAAAATGATAATTACACCCATAAATTCATCATTATCACCCCCAATTTAACTATAACGCTCTGATCATAGTCAGACCAACATTGCTACGACCCGTATTCGCACCGACAC”: the “relative integration efficiency (log2)” value is 1.385 ± 0.0021.

With “ACATTTGTTGATACACCCATAAATTGATAATTACAACCATAAGTTGATATTTTTCACAACCATAAAATGATAATTACTCTGATCATAGTCAGACCAACATTGCTACGACCCGTATTCGCACCGACAC”, the “relative integration efficiency (log2)” value is -0.748 ± 0.17.

Regarding “ACATTTGTTGATACAACCATAAAATGATAATTACACCCATAAATTGATAATTCACACCCATAAATTGATATTGCCTCTGATCATAGTCAGACCAACATTGCTACGACCCGTATTCGCACCGACACTG”, the “relative integration efficiency (log2)” value was found to be 1.41 ± 0.045.

Turning to “ACATTTGATGATAGAACCATTTAATGATAATAACACCCATAAAATGATAATTATCACACCCAATTTAACTATAACGCTCTGATCATAGTCAGACCAACATTGCTACGACCCGTATTCGCACCGACAC”, the “relative integration efficiency (log2)” value is -0.836 ± 0.44.

On to “ACATTTGTTGATACAACCATAAAATGATAATTACACCCATAAATTCATAATTATCACCCCCAATTTAACTATAACGCTCTGATCATAGTCAGACCAACATTGCTACGACCCGTATTCGCACCGACAC”, for which the “relative integration efficiency (log2)” value was determined as 1.06 ± 0.079.

Regarding “ACATTTGTTGATACAACCATATATTGATATCTCCACCCATAAATTGATAATTATCACAACCATAAGTTGATATTTTCTCTGATCATAGTCAGACCAACATTGCTACGACCCGTATTCGCACCGACAC”, the “relative integration efficiency (log2)” value turned out to be 0.056 ± 0.33.

As to “ACATTTGTTGATACAACCATAAAAGGATAATTACACCCATAAATTGATAATTATCACACCCCATTTAACTATAACGCTCTGATCATAGTCAGACCAACATTGCTACGACCCGTATTCGCACCGACAC”, the “relative integration efficiency (log2)” value was found to be 2.32 ± 0.013.

In the case of “ACATTTGTTGATACAACCATAAAATGATAATTACACCCATAAATTGTATTTTATCACACCCATAAATTGATATTGCCTCTGATCATAGTCAGACCAACATTGCTACGACCCGTATTCGCACCGACAC”, the “relative integration efficiency (log2)” value is -0.327 ± 0.39.

As to “ACATTTGTTGATACAACCATAAAATGATAATTACACCCATAAATTGATAATTATCAGTGGCATAAATTGATATTGCCTCTGATCATAGTCAGACCAACATTGCTACGACCCGTATTCGCACCGACAC”, the “relative integration efficiency (log2)” value was 1.86 ± 0.12.

In the case of “ACATTTGTTGATACAACCATAAAATGATAATTACTCTGATCATCACCCATAAATTGATAATTATCAGTGGGTATTTAACTATAACGAGTCAGACCAACATTGCTACGACCCGTATTCGCACCGACAC”, the “relative integration efficiency (log2)” value is -0.42 ± 0.11.

As to “ACATTTGTGGATACAACCATAAAATGATAATTACCACCCCTACATTGATAATTATCACACCCATTTAACTATAACGCTCTGATCATAGTCAGACCAACATTGCTACGACCCGTATTCGCACCGACAC”, the “relative integration efficiency (log2)” value was -0.503 ± 0.055.

As for “ACATTTGTTGATACAACCATAAAAGGATCATTACCCCCATCAATTGATAATTATCACACCCCATTTAACTATAACGCTCTGATCATAGTCAGACCAACATTGCTACGACCCGTATTCGCACCGACAC”, the “relative integration efficiency (log2)” value is -1.38 ± 0.048.

Consider “ACATTTGTTGATACAACCATAAAGTGATATTTACACCCATAAATTGATATTGCTCACAACCATAAAGTGATATTTACTCTGATCATAGTCAGACCAACATTGCTACGACCCGTATTCGCACCGACAC”, for which the “relative integration efficiency (log2)” value was determined as 0.171 ± 0.15.

In the case of “ACATTTGTTGATACACACATAAAATGATAATTACACCCATAAATTGATAATTATCACACCCATAAATTGATATTGCCTCTGATCATAGTCAGACCAACATTGCTACGACCCGTATTCGCACCGACAC”, the “relative integration efficiency (log2)” value is -0.763 ± 0.33.

“ACATTTGTGGATACAACCATAAAATGATAATTACCACCCCTAAATTGATAATTATCACACCCATTTAACTATAACGCTCTGATCATAGTCAGACCAACATTGCTACGACCCGTATTCGCACCGACAC”: the “relative integration efficiency (log2)” value was -0.51 ± 0.037.

Regarding “ACATTTGTTGATACACCCATAAATTGATATTGCCAACCATAAAATGATAATTATCACAACCATATATTGATATCTCCTCTGATCATAGTCAGACCAACATTGCTACGACCCGTATTCGCACCGACAC”, the “relative integration efficiency (log2)” value was -0.207 ± 0.002.

For the sequence “ACATTTGTTGATACAACCATAAAATGATAATTACACCCATAAATGGATCATTATCACCCCCAATTTAACTATAACGCTCTGATCATAGTCAGACCAACATTGCTACGACCCGTATTCGCACCGACAC”, the “relative integration efficiency (log2)” value turned out to be 1.15 ± 0.28.

In the case of “ACATTTGTGGATACAACCCTAAAATGATAATTACACCCATAAATTGATCATTATCACCCCCAATTTAACTATAACGCTCTGATCATAGTCAGACCAACATTGCTACGACCCGTATTCGCACCGACAC”, the “relative integration efficiency (log2)” value was 0.316 ± 0.5.

With “ACATTTGTTGATACAACCATAAAATGATAATTACACCCATAAATTGAATTATATCACACCCATAAATTGATATTGCCTCTGATCATAGTCAGACCAACATTGCTACGACCCGTATTCGCACCGACAC”, the “relative integration efficiency (log2)” value is -0.447 ± 0.17.

With “ACATTTGTTGATACAACCATAAAATGATAATTACACCCATAAATTGATACGTATCACACCCATAAATTGATATTGCCTCTGATCATAGTCAGACCAACATTGCTACGACCCGTATTCGCACCGACAC”, the “relative integration efficiency (log2)” value was -0.44 ± 0.48.

Take “ACATTTGTTGATACAACCAATAAAAGATAATTACACCCATAAATTGATAATTGTGACACCGAATTTAACTATAACGCTCTGATCATAGTCAGACCAACATTGCTACGACCCGTATTCGCACCGACAC”: the “relative integration efficiency (log2)” value came out at 1.26 ± 0.029.

With “ACATTTGTTGATACAACCATAAAATGATAATTACTCTGATCATAGTCAGACCACACCCATAAATTGATAATTATCACACCCATAAATTGATATTGCACATTGCTACGACCCGTATTCGCACCGACAC”, the “relative integration efficiency (log2)” value was -2.36 ± 0.32.

For “ACATTTGTTGATACACCCATAAATTGATATTGCCAACCATAAAGTGATATTTATCACACCCATAAATTGATATTGCCTCTGATCATAGTCAGACCAACATTGCTACGACCCGTATTCGCACCGACAC”, the “relative integration efficiency (log2)” value was -0.415 ± 0.17.
